In IntAct's records for PubMed 35512704:

B1: Mothers against decapentaplegic homolog 4 (Homo sapiens), Q13485 (parent)
chain: MDNMSITNTPTSNDACLSIVHSLMCHRQGGESETFAKRAIESLVKKLKEKKDELDSLITAITTNGAHPSKCVTIQRTLDGRLQVAGRKGFPHVIYARLWRWPDLHKNELKHVKYCQYAFDLKCDSVCVNPYHYERVVSPGIDLSGLTLQSNAPSSMMVKDEYVHDFEGQPSLSTEGHSIQTIQHPPSNRASTETYSTPALLAPSESNATSTANFPNIPVASTSQPASILGGSHSEGLLQIASGPQPGQQQNGFTGQPATYHHNSTTTWTGSRTAPYTPNLPHHQNGHLQHHPPMPPHPGHYWPVHNELAFQPPISNHPAPEYWCSIAYFEMDVQVGETFKVPSSCPIVTVDGYVDPSGGDRFCLGQLSNVHRTEAIERARLHIGKGVQLECKGEGDVWVRCLSDHAVFVQSYYLDREAGRAPGDAVHKIYPSAYIKVFDLRQCHRQMQQQAATAQAAAAAQAAAVAGNIPGPGSVGGIAPAISLSAAAGIGVDDLRRLCILRMSFVKGWGPDYPRQSIKETPCWIEIHLHRALQLLDEVLHTMPIADPQPLD
partner: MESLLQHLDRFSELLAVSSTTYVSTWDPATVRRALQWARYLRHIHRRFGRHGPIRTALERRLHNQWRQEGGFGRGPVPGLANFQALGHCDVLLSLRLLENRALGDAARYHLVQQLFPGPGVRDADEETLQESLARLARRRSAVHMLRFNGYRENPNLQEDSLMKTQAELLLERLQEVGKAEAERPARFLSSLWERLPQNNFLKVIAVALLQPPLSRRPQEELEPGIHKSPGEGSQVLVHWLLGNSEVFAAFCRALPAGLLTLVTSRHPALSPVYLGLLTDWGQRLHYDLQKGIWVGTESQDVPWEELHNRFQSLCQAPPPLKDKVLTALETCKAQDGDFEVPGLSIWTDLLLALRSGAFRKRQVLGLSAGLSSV
B2: Mothers against decapentaplegic homolog 4 (Homo sapiens), Q13485 (parent)
chain: B1 chain
partner: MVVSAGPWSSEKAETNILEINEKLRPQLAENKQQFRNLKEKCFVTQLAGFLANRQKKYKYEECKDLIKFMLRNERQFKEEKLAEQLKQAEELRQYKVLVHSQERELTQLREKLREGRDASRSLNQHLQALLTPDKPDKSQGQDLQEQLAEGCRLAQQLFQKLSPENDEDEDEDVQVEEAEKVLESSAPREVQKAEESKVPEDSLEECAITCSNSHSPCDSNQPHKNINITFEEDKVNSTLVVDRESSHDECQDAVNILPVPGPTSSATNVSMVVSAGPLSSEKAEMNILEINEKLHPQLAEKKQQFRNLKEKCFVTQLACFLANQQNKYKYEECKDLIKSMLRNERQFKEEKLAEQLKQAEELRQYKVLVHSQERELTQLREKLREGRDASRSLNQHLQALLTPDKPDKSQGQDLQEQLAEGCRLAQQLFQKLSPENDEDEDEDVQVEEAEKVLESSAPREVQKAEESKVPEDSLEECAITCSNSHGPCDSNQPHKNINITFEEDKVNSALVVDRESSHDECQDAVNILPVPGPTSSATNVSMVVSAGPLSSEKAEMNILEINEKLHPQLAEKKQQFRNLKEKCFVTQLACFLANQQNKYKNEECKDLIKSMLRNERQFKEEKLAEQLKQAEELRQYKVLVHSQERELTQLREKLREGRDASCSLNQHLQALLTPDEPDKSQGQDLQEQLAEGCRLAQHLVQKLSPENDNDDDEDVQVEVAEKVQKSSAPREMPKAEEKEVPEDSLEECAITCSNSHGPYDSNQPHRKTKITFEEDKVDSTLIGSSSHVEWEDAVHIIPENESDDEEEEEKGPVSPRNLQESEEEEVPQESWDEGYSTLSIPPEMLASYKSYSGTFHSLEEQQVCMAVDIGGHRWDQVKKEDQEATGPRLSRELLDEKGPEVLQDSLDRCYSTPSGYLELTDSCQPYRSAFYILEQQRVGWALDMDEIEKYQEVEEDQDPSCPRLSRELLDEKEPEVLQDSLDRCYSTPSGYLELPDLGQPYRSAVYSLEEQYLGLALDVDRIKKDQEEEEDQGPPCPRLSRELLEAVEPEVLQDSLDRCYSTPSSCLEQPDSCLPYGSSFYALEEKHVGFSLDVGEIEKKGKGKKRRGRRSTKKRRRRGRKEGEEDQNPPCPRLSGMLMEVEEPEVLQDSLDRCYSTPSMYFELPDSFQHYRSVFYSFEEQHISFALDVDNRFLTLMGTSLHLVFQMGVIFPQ
B3: Mothers against decapentaplegic homolog 4 (Homo sapiens), Q13485 (parent)
chain: B1 chain
partner: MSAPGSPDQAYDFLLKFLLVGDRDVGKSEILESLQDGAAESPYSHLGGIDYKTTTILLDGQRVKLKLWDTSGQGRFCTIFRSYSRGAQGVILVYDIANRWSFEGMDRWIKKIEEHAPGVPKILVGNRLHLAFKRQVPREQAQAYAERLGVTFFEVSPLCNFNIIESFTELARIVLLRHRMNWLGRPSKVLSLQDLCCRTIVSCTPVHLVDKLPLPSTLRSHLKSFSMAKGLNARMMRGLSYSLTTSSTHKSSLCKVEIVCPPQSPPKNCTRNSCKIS
B4: Mothers against decapentaplegic homolog 4 (Homo sapiens), Q13485 (parent)
chain: B1 chain
partner: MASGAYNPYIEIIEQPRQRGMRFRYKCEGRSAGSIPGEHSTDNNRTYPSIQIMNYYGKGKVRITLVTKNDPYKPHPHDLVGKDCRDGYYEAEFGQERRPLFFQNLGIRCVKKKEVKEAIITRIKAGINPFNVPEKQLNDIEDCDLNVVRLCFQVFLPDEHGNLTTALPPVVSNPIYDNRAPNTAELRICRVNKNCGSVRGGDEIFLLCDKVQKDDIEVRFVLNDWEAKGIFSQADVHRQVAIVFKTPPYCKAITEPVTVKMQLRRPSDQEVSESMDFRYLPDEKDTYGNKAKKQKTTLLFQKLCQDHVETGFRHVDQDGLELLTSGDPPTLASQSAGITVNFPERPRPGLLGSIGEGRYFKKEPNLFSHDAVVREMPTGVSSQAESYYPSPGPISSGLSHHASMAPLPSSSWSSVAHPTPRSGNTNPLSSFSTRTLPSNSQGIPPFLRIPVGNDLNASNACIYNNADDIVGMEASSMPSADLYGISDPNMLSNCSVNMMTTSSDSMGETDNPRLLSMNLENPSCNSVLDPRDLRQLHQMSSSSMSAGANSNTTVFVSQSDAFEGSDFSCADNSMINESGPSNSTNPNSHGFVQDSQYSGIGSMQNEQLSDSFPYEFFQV
B5: Mothers against decapentaplegic homolog 4 (Homo sapiens), Q13485 (parent)
chain: B1 chain
partner: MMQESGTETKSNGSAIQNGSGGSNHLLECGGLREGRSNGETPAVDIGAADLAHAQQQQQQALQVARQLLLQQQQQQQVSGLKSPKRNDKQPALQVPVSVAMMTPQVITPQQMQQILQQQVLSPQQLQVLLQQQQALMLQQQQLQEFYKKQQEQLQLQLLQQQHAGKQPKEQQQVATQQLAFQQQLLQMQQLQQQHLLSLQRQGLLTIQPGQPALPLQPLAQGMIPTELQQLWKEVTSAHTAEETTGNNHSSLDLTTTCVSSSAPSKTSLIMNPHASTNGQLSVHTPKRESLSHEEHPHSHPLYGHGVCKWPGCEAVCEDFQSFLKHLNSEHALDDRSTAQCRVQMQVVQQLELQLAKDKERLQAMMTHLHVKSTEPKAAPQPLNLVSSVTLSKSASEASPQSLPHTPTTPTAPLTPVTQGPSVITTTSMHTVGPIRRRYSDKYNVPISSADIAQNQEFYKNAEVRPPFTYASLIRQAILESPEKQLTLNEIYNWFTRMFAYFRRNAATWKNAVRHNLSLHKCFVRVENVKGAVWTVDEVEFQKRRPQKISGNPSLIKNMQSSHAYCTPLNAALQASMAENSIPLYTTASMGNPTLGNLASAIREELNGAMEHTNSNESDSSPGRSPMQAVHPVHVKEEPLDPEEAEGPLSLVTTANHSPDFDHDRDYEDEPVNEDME
B6: Mothers against decapentaplegic homolog 4 (Homo sapiens), Q13485 (parent)
chain: B1 chain
partner: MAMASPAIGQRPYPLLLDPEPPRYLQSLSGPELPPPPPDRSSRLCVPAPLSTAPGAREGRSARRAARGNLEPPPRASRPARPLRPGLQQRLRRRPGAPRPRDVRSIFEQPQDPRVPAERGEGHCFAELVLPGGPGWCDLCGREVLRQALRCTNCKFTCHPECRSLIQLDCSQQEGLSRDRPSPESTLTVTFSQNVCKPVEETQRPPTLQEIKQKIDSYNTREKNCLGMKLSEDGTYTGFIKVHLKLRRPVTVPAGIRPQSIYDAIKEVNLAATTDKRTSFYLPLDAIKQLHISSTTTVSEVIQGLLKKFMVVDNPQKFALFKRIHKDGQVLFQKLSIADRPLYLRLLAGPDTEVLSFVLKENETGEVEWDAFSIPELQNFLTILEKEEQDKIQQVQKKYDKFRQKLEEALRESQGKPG
B7: Mothers against decapentaplegic homolog 4 (Homo sapiens), Q13485 (parent)
chain: B1 chain
partner: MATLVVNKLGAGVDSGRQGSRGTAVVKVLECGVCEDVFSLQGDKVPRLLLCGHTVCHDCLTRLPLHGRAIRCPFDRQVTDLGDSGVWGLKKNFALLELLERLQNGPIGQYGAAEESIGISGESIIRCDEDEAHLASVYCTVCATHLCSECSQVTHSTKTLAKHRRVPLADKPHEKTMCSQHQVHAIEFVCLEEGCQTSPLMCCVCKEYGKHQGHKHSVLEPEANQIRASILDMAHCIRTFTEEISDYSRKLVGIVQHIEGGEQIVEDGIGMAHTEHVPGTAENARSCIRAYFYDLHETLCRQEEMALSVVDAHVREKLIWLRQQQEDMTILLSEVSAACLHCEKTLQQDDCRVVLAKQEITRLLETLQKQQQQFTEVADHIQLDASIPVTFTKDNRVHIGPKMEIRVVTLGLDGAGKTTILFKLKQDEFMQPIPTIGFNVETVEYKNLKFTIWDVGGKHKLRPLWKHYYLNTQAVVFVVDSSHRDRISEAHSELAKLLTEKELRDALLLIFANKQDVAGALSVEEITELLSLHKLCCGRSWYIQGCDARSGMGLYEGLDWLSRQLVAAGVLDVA
B8: Mothers against decapentaplegic homolog 4 (Homo sapiens), Q13485 (parent)
chain: B1 chain
partner: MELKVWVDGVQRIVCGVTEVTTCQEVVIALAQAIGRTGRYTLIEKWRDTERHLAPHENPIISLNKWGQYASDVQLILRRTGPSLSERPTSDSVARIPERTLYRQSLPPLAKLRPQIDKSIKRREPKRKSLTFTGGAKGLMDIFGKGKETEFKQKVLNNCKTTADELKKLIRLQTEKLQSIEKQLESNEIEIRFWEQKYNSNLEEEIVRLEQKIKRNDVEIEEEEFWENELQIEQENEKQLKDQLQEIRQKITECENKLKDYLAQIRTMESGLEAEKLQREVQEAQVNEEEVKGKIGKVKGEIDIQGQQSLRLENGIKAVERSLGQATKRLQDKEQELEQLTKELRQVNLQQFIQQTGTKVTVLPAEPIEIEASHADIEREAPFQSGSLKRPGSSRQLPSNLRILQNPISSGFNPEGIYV

Variants of: B1
Conditions: with fancf_human FANCF

Row | Variant | effect of a mutation on the interaction
1 | G386D | with no effect

Variants of: B2
Conditions: with nbpf1_human NBPF1, Q3BBV0

Row | Variant | effect of a mutation on the interaction
2 | G386D | with no effect

Variants of: B3
Conditions: with rb40a_human RAB40A

Row | Variant | effect of a mutation on the interaction
3 | G386D | with no effect

Variants of: B4
Conditions: with rel_human REL

Row | Variant | effect of a mutation on the interaction
4 | G386D | with no effect

Variants of: B5
Conditions: with foxp1_human FOXP1, Q9H334

Row | Variant | effect of a mutation on the interaction
5 | G386D | with no effect

Variants of: B6
Conditions: with rasf5_human RASSF5, Q8WWW0

Row | Variant | effect of a mutation on the interaction
6 | G386D | with no effect

Variants of: B6
Conditions: with rasf5_human RASSF5, Q8WWW0
Remark: another data set of the same source

Row | Variant | effect of a mutation on the interaction
7 | R361H | with no effect

Variants of: B7
Conditions: with tri23_human TRIM23, P36406

Row | Variant | effect of a mutation on the interaction
8 | R361H | with no effect

Variants of: B8
Conditions: with rasf8_human RASSF8, Q8NHQ8

Row | Variant | effect of a mutation on the interaction
9 | G386D | with no effect

Variants of: B8
Conditions: with rasf8_human RASSF8, Q8NHQ8
Remark: another data set of the same source

Row | Variant | effect of a mutation on the interaction
10 | G386D | increasing interaction strength

Variants of: B8
Conditions: with rasf8_human RASSF8, Q8NHQ8
Remark: another data set of the same source

Row | Variant | effect of a mutation on the interaction
11 | R361C | with no effect

Variants of: B8
Conditions: with rasf8_human RASSF8, Q8NHQ8
Remark: another data set of the same source

Row | Variant | effect of a mutation on the interaction
12 | R361H | with no effect
